Drawing on patent US20180208680A1 (published 2018), this text covers Kd for eight molecules.

To fix the notation:
T1: BoNT/C1 holotoxin (Clostridium botulinum, UniProt P18640 2-1291)
T1 sequence: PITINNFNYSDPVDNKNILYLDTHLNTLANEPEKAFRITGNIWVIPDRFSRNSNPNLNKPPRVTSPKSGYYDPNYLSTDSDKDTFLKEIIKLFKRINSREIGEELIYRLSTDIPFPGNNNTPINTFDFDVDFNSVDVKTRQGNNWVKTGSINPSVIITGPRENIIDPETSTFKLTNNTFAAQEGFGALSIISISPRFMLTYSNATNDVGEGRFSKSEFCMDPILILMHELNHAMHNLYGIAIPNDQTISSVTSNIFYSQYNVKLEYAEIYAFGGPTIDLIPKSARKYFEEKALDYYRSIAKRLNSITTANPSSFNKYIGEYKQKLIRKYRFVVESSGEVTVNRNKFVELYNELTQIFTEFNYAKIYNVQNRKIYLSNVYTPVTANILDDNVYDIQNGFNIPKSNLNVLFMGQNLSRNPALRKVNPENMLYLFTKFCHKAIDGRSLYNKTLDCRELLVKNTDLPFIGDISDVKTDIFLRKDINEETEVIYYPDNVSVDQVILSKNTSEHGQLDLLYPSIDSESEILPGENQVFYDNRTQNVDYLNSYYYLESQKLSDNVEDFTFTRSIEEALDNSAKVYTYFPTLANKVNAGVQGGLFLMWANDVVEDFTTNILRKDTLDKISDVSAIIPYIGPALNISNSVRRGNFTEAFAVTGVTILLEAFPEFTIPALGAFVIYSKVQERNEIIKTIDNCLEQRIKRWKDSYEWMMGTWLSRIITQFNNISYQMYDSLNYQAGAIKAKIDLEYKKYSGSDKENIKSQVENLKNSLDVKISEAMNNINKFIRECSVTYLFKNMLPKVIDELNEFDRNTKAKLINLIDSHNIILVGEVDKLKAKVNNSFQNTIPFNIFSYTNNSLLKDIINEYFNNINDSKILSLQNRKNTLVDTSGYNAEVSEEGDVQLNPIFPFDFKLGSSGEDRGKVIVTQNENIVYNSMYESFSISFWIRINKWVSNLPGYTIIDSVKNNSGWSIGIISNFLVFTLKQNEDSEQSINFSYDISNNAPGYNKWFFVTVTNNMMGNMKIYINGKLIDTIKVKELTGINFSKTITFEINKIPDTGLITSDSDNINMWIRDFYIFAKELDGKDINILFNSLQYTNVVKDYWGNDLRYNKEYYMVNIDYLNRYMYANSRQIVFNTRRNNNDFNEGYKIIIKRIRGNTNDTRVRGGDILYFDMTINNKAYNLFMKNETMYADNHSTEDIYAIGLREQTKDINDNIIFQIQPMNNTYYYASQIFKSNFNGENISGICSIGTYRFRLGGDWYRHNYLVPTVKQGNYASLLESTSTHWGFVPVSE

B1: 4C10 scFv (scFv, V domains shown)
VH: QVQLVESGGGAVQPGESLRLSCAASGFTFSGFDMHWVRQSPGRGLEWVARISHDGSMADYADSLRGRFTISRDNPKNTLYLHMNSLRVEDTALYYCAKDRWRSGSYPAFEKWGQGTMVTVSS
VL: QSVPTQPASVSGSPGQSITISCTGTSSDVGAYNYVSWYQQHPGKAPKLMIYDVSDRPSGVSNRFSGSKSGNTASLTISGLQAEDEADYYCSSYTSSSTYVFGTGTKLTVL
B2: 4C4 scFv (scFv, V domains shown)
VH: QVQLVESGPGLVKPSQTLSLTCSVSGASINNSPYFWNWFRQFPGKGLEWIGYIYWSGSTNYNPSLKSRLAMSVDTSKNQFSLKLTSATAADTAVYYCARDQGGGTVVKENWFDPWGQGTLVTVSS
VL: DIVMTQSPSSLSASVGDRLTMTCQASQDIGKHLNWYQQKAGKPPKLLIYGASNLKTGVPSRFSAGVSWTDFTFTISNVQPEDVATYYCQQSYSTPPTFGQGTKVEIKR
B3: 4C4.2 scFv (scFv, V domains shown)
VH: B2 VH
VL: DIQMTQSPSTLSASVGDRVTITCRASQSIGTYLNWYQQKPGRAPTLLVSRTSNLHTGVPSRFSGDGSGSHFSLTIDSLQPEDFATYYCQQSHTSPVTFGQGTKVEIKR
B4: 4C4.1 scFv (scFv, V domains shown)
VH: B2 VH
VL: ETTLTQSPSSLSASVGDRVSITCRASQSISNYLNWYQQKPGKAPKLLIYAASSLQSGVPSRFSGSGSGTDFTLTISSLQPEDFATYYCQQSYSDPPTFGQGTKVEIKR
B5: 4C4 IgG (antibody, V domains shown)
VH: B2 VH
VL: DIVMTQSPSSLSASVGDRLTMTCQASQDIGKHLNWYQQKAGKPPKLLIYGASNLKTGVPSRFSAGVSWTDFTFTISNVQPEDVATYYCQQSYSTPPTFGQGTKVEIK
B6: 4C4.2 IgG (antibody, V domains shown)
VH: B2 VH
VL: DIQMTQSPSTLSASVGDRVTITCRASQSIGTYLNWYQQKPGRAPTLLVSRTSNLHTGVPSRFSGDGSGSHFSLTIDSLQPEDFATYYCQQSHTSPVTFGQGTKVEIK
B7: 4C4.1 IgG (antibody, V domains shown)
VH: B2 VH
VL: ETTLTQSPSSLSASVGDRVSITCRASQSISNYLNWYQQKPGKAPKLLIYAASSLQSGVPSRFSGSGSGTDFTLTISSLQPEDFATYYCQQSYSDPPTFGQGTKVEIK
B8: 8DC1.2 IgG (antibody, V domains shown)
VH: QVTLKESGGGLVQPGRSLTLSCPLSGFTSSDYVLHWVRQAPGTGLDWVAVISSDGTKAYYGDSVKGRFTISRDTSKNTLLLQMNSPRAEDTAIYYCAISTRGPFDIWGHGTMVTVSS
VL: DIQMTQSPSSLSAFVGDRITITCRASRGVSNYLAWYQQKPGKAPKLLIYAASSLQSGVPSRFSGSGSGTEFTLTISGLQPDDFATYYCQQYNAYPLTFGGGTKLEIK

One experiment concerns the target T2, BoNT/DC mosaic toxin (Clostridium botulinum). Kind of experiment: yeast scFv FACS.
Regarding B1, the Kd amounted to 107 nM.

In turn, B2 displayed a Kd of 0.58 nM. Still for that read-out and setting: in the case of B3 it was 0.13 nM; in that of B4, 0.06 nM.

The target of a further experiment is T1, BoNT/C1 holotoxin. Put plainly: yeast scFv FACS.
B2 displayed a Kd of 3 nM. Molecule B3 displayed a Kd of 1.1 nM. The same measure, in the same setting: under B4 stands 1.5 nM.

Another experiment has as its target T1, BoNT/C1 holotoxin. Kind of experiment: yeast scFv FACS. This is another data set of the same source.
The molecule B2 showed a Kd of 2.6 nM.

The next experiment addresses T2, BoNT/DC mosaic toxin. Put plainly: IgG KinExA.
Consider B5, for which the affinity, expressed as Kd, was 0.577 nM. Take B6: binding was characterised by a dissociation constant (Kd) of 0.126 nM.

In the case of B7, binding was put at a Kd of 0.058 nM.

A further experiment deals with T1, BoNT/C1 holotoxin. Put plainly: IgG KinExA.
B5: the dissociation constant (Kd) is 0.835 nM. The same measure, in the same setting: in the case of B6 it was 0.035 nM; in that of B7, 0.539 nM.

Consider B8, for which the dissociation constant Kd was 0.736 nM.
